Assay [1] concerns iPS cells. Put plainly: Three-dimensional suspension culture with BMP4, hCG quantified by i-STAT cartridge Total β-hCG. Type of assay: cell-based, human. The procedure:
In the i-STAT cartridge Total β-hCG, about 17 μL of the culture supernatant was sampled, injected into the reagent cartridge, and inserted into the single-purpose analyzer.
On the other hand, three-dimensional suspension culture was started at the same time using the same iPS cells used in the two-dimensional culture adhesion culture. 30 mL of an iPS cell medium (StemFit (registered trade name) AK02N: Ajinomoto Co., Inc.) was dispensed into a 30 mL volume spinner flask (ABLE Corporation), and then iPS cells (1.3×10^6 cells/mL) were seeded. In the same manner as in the two-dimensional adhesion culture, BMP4 was not added at the start of culture, but a medium to which a solution containing 50 μg/mL BMP4 (R&D Systems Inc.) was added at the same proportion as that used in the two-dimensional adhesion culture was used after the 4th day of culture. After the start of culture, the addition of BMP4 to the medium was continued until the 14th day of culture while the medium was exchanged every 3 to 4 days, and thereafter, a medium to which BMP4 had not been added was used. In three-dimensional suspension culture, stirring culture was continued in a spinner flask throughout the culture period. While continuing the two-dimensional adhesion culture and the three-dimensional suspension culture, the culture supernatant was appropriately sampled after the 7th day of culture, and the amount of hCG produced was quantified using the i-STAT cartridge Total β-hCG. Since there are differences in the number of cells that can be seeded at the start of culture and the adding amount of medium between the two-dimensional culture and the three-dimensional culture, there are differences in the hCG concentration and the total hCG production in the culture supernatant, and thus it is not possible to simply compare them. For this reason, the hCG quantification value on the 7th day of culture after the start of differentiation induction into the placenta was set to 100, and the ratio of the hCG quantification value on the subsequent culture measurement day to the hCG quantification value on the 7th day of culture was calculated. That is, in a case where the hCG quantification value on the 7th day is set to 100 in each of the two-dimensional and three-dimensional culture forms, the subsequent changes after the 7th day in the hCG production amount are shown in FIG. 2. It was confirmed that in the two-dimensional culture, the decrease in hCG production amount is particularly remarkable after the 15th day of culture, whereas in the three-dimensional culture, the hCG continues to be produced after the 15th day, and even on the 25th day of culture, 10 times or more of the hCG production is maintained as compared with the 7th day of culture.

The subject of assay [2] is iPS cells. Put plainly: Two-dimensional adhesion culture of iPS cells with BMP4, hCG in culture supernatant by GONASTICK W. Type of assay: cell-based, human. The settings on record: 2D adhesion culture, StemFit, BMP4 present. How it is done:
In GONASTICK W, about 0.5 to 1 mL of the culture supernatant was sampled, and a test strip was soaked therein. After the soaking was completed, the determination surface of the test strip was placed to face upward and allowed to stand until the culture supernatant passed through the determination window and reached the reaction end window. […] The detection sensitivity of the present examination reagent is 25 IU/L, and a blue control line corresponding to an hCG concentration of 1,000 IU/L is printed in advance on the determination window, which can be visually compared with the determination line.
In a case where a line equal to or more blue-colored than the control line was visually observed on the determination line, it was judged as positive (+).
In a case where the line was not visually observed on the determination line, it was determined to be negative (−).
In a case where a line that was less blue-colored than the control line but was visible was visually observed on the determination line, it was determined to be (+/−).
Laminin (iMatrix-511: Nippi. Inc.) was diluted with Dulbecco's phosphate buffered saline (DPBS), 1 mL thereof per well was dispensed into a 6-well plate (Falcon TC: #353046), and the plate was allowed to stand in a 37° C. incubator for 1 hour to be coated with laminin. 2 mL of an iPS cell medium (StemFit (registered trade name) AK02N: Ajinomoto Co., Inc.) to which 2 μL of a solution containing 50 μg/mL BMP4 (R&D Systems Inc.) had been added was dispensed into the laminin-coated plate, and iPS cells (4×10^4 cells/well) were seeded therein. The culture was continued while appropriately changing the medium, and the hCG contained in the culture supernatant was detected using a drug for in vitro diagnosis for the pregnancy test, GONASTICK W (MOCHIDA PHARMACEUTICAL Co., Ltd.), whereby the differentiation induction into a placental tissue was checked. As a negative control, the same culture was carried out using a medium to which BMP4 had not been added. The hCG was started to be produced on the 7th day of culture; however, the hCG production stopped around the 18th day (Table 1).

Setting [3] is: Three-dimensional culture, day 10.
The mark [4] stands for this setting: Three-dimensional culture, day 14.
Where [5] appears, read: Three-dimensional culture, day 17.
Where [6] appears, read: Three-dimensional culture, day 19.
[7] abbreviates: Three-dimensional culture, day 21.
The mark [8] stands for this setting: Three-dimensional culture, day 25.

The values that follow come from patent US20220154138A1, “METHOD OF PRODUCING PLACENTA-LIKE ORGANOID, PLACENTA-LIKE ORGANOID, AND PRODUCTION OR TEST KIT” (FUJIFILM Corporation, priority 2020, published 2022).

B1: BMP4: bone morphogenetic protein BMP4 (R&D Systems Inc.), added to iPS cell medium at 50 ng/mL to induce differentiation (protein, UniProt P12644 293-408, looked up)
Bone morphogenetic protein 4: SPKHHSQRARKKNKNCRRHSLYVDFSDVGWNDWIVAPPGYQAFYCHGDCPFPLADHLNSTNHAIVQTLVNSVNSSIPKACCVPTELSAISMLYLDEYDKVVLKNYQEMVVEGCGCR
Turning to B1, the hCG production worked out at 1.6 IU in the assay with iPS cells [1] (Three-dimensional culture, BMP4 day 4 to 14, day 7); 61 IU with iPS cells [1] (setting [3]); 79 IU in the assay on iPS cells [1] (setting [4]); 120 IU with iPS cells [1] (setting [5]); 120 IU with iPS cells [1] (setting [6]); 54 IU in the assay with iPS cells [1] (setting [7]). Besides, the hCG production with iPS cells [1] (setting [8]) was 23 IU; in the assay on iPS cells [2] (day 7) it was “+ (a line equal to or more blue-colored than the control line was visually observed on the determination line, it was judged as positive (+))”; in the assay on iPS cells [2] (day 11), “+ (a line equal to or more blue-colored than the control line was visually observed on the determination line, it was judged as positive (+))”; with iPS cells [2] (day 15), “+ (a line equal to or more blue-colored than the control line was visually observed on the determination line, it was judged as positive (+))”; with iPS cells [2] (day 18), “+/− (a line that was less blue-colored than the control line but was visible was visually observed on the determination line, it was determined to be (+/−))”; in the assay with iPS cells [2] (day 21), “− (the line was not visually observed on the determination line, it was determined to be negative (−))”. For the same molecule, the “hCG* production (hCG production on each of culture days/hCG production amount on 7th day) × 100” value in the assay with iPS cells [1] (Three-dimensional culture, day 7) is on record as 100 AU. Further, the “hCG* production (relative to 7th day × 100)” value is 3,936 AU in the assay on iPS cells [1] (setting [3]); 5,044 AU in the assay on iPS cells [1] (setting [4]); 7,692 AU in the assay on iPS cells [1] (setting [5]); 7,692 AU in the assay with iPS cells [1] (setting [6]); 3,465 AU in the assay with iPS cells [1] (setting [7]); 1,498 AU in the assay on iPS cells [1] (setting [8]). In the assay on iPS cells [1] (three-dimensional culture), the “hCG production on 25th day as compared with the 7th day of culture” value was not below 10 times.
